The record followed here is paper PMC11243337, “Self-Responsive Fluorescence Aptasensor for Lactoferrin Determination in Dairy Products”.

For this data set, the target named is Lactoferrin (Lf) (bovine (cow's milk), UniProt P24627 20-708). Description: fluorescence quenching (6-FAM); Tris-EDTA, no added ions; Lf 5 and 40 ug/mL; Tris-EDTA pH 8.0, no added salt, 25 C, 10 min; 90 uL of 50 nM aptamer + 100 uL Lf (0-100 ug/mL); Ex 485/Em 528 nm. Specificity section (alpha-La, beta-Lg, BSA). As to conditions: protein: commercial; label: 3'-6-FAM.
Sequence of Lactoferrin (Lf) (P24627 20-708): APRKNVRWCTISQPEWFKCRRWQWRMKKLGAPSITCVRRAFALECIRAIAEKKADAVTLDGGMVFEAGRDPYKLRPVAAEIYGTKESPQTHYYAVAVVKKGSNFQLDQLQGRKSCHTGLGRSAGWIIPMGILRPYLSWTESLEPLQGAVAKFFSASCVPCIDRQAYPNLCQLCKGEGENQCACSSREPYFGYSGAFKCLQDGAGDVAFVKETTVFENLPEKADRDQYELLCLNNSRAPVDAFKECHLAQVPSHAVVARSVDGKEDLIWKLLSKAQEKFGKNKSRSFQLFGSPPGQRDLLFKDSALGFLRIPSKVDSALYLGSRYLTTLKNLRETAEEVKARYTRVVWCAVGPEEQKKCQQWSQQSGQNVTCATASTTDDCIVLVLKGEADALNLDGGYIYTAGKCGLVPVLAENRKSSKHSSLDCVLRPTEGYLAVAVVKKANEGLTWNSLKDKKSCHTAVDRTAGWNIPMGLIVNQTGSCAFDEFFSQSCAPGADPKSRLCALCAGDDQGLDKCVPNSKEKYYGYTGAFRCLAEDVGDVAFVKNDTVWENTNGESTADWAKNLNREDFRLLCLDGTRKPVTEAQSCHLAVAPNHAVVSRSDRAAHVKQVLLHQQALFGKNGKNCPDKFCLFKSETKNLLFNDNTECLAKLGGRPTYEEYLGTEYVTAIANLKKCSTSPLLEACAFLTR

As for TGGTGCTGCCCCTAGTCTCCGGCTGATAGCTGCTTCTTGG (ssDNA) [Lf aptamer, 3'-6-FAM], the binding result is given as “binds”.
